Assay results published in patent publication US20090130104A1 (University of Pennsylvania, published 2009).

Biological target: low molecular weight single-chain urokinase plasminogen activator (lmw-scuPA), non-targeted (human, UniProt P00749 164-431)
Assay: ELISA on plates coated with soluble mouse PECAM
Method: The size and homogeneity of purified scFv/uPA-T was analyzed using 12% SDS-PAGE with or without addition of thrombin (150 nM). Conversion to its two-chain derivative was determined in the presence of 50 mM dithiothreitol (DTT). cDNA encoding the extracellular domain of mouse PECAM (amino acids Glu¹⁸-Lys⁵⁹⁰) was obtained by the reverse transcription polymerized chain reaction (RT-PCR) using mouse lung tissue total RNA. A FLAG affinity tag was fused to the N-terminus and subcloned into the BglII and NotI sites in the pMT/Bip vector. Stable cell lines were generated. Soluble mouse PECAM was purified from secreted supernatant using M2 anti-FLAG affinity chromatography. Specific binding of scFv/uPA-T to soluble PECAM was measured by ELISA. Each well within a 96-well plate was coated with 5 μg/ml soluble mouse PECAM protein overnight, the unbound sites were blocked with PBS containing 5% bovine serum albumin (BSA) at 37° C. for 1 h and various dilutions of scFv/uPA-T or WT lmw-scuPA were added for 1 hour. Unbound protein was removed by washing with PBS and 1 μg/ml anti-uPA monoclonal antibody in PBS containing 1% BSA was added. The wells were washed, horseradish peroxidase conjugated anti-mouse IgG was added, the wells washed again, TMB substrate was added and the optical density at 450 nm (OD450) was measured. […]

- binding result: no binding
B1: soluble mouse PECAM, extracellular domain (Glu18-Lys590) with N-terminal FLAG tag (receptor, UniProt Q08481 18-590, looked up, not shown: small tags and cut ends)
chain: EENSFTINSIHMESLPSWEVMNGQQLTLECLVDISTTSKSRSQHRVLFYKDDAMVYNVTSREHTESYVIPQARVFHSGKYKCTVMLNNKEKTTIEYEVKVHGVSKPKVTLDKKEVTEGGVVTVNCSLQEEKPPIFFKIEKLEVGTKFVKRRIDKTSNENFVLMEFPIEAQDHVLVFRCQAGILSGFKLQESEPIRSEYVTVQESFSTPKFEIKPPGMIIEGDQLHIRCIVQVTHLVQEFTEIIIQKDKAIVATSKQSSEAVYSVMAMVEYSGHYTCKVESNRISKASSIMVNITELFPKPKLEFSSSRLDQGELLDLSCSVSGTPVANFTIQKEETVLSQYQNFSKIAEESDSGEYSCTAGIGKVVKRSGLVPIQVCEMLSKPSIFHDAKSEIIKGHAIGISCQSENGTAPITYHLMKAKSDFQTLEVTSNDPATFTDKPTRDMEYQCRADNCHSHPAVFSEILRVRVIAPVDEVVISILSSNEVQSGSEMVLRCSVKEGTSPITFQFYKEKEDRPFHQAVVNDTQAFWHNKQASKKQEGQYYCTASNRASSMRTSPRSSTLAVRVFLAPWKK
notes: range 18-590; Secreted from Drosophila cells (pMT/Bip vector), purified on M2 anti-FLAG; coated on 96-well plates at 5 ug/ml; also called immobilized extracellular domain of mouse PECAM; immobilized mouse PECAM
